# Laboratory results as given in patent US20070287163A1 (CRUCELL HOLLAND B V, published 2007).
# T1: CD46 (human (HEp-2 cells), UniProt P15529)
# T1 construct: endogenous, cell-surface biotinylated, solubilised in Triton X-100 lysate; The bands in the CR2300 lane were not separately identified
# T1 sequence (antigen, looked up): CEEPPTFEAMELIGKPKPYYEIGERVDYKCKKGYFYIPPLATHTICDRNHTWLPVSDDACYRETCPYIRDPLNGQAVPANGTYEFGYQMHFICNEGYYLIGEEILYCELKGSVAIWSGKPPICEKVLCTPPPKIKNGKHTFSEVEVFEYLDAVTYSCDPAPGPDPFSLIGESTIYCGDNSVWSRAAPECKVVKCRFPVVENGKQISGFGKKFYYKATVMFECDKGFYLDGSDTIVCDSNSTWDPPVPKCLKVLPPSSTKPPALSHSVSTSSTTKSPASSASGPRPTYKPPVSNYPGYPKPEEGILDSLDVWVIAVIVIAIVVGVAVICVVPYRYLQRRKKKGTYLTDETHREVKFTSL
# B1: CR2407 IgG1 (antibody, V domains shown)
# VH: EVQLVESGGGLVQPGGSLRLSCAASGFTFSSYAMSWVRQAPGKGLEWVSAISGSGGSTYYADSVKGRFTISRDNSKDTLYLQMSSLKTEDTAVYYCARGSLLQFWGQGTLVTVSS
# VL: SSELTQDPAVSVALGQTVRITCQGDSLRSYYASWYQQKPGQAPVLVIYGKNNRPSGIPDRFSGSSSGNTASLTITGAQAEDEADYYCNSRDSSGNHVVFGGGTKLTVLG
# notes: also called anti-ALCAM IgG1
# Target: T1, CD46
# Test: immunoprecipitation from surface-biotinylated HEp-2 lysate, streptavidin-HRP blot
# Protocol: To identify whether CR2407 reacted with a membrane extractable antigen, the cell surface of 10⁸ HEp-2 cells were biotinylated during 1 hour at room temperature with a final concentration of 2 mg sulfo-NHS-LC-LC-biotin in physiological buffer (0.2 M phosphate buffer containing 0.12 M NaCl, pH 7.4). Subsequently, the remaining free biotin was blocked during an incubation of 30 minutes at room temperature with 10 mM glycine in physiological buffer. After labeling, the cells were washed with cold physiological buffer and solubilized for 30 minutes on ice at a concentration of 3×10⁷ cells/ml in TX-100 lysis buffer (1% Triton X-100, 150 mM NaCl, 50 mM Tris pH 7.4, protease inhibitors (Roche)). The unsoluble material was removed by centrifugation for 30 minutes at 4° C. at 20,000*g.
# Hereafter, the biotinylated solubilized lysates were pre-cleared with protein-A beads for 2 hours at 4° C. 4 μg of CR2407 and the negative control antibody CR2428 and positive control antibody CR2300 (directed against CD46) were coupled to protein A beads at room temperature. Next, the pre-cleared samples were incubated with the above IgG's coupled to protein-A beads for 2 hours at 4° C. […] After blotting on PVDF membranes, the biotinylated proteins were detected with streptavidin-HRP (Amersham) and enhanced chemoluminescence (Amersham).
binder,measurement,value
B1,binding result,no binding (tested: 4 ug IgG on protein-A beads)
